# According to US20210221907A1 (published 2021):
# T1: TROP2 on MDA-468 cells over-expressing TROP2 (TROP2+ MDA-468) (UniProt P09758 27-323)
# T1 sequence (looked up): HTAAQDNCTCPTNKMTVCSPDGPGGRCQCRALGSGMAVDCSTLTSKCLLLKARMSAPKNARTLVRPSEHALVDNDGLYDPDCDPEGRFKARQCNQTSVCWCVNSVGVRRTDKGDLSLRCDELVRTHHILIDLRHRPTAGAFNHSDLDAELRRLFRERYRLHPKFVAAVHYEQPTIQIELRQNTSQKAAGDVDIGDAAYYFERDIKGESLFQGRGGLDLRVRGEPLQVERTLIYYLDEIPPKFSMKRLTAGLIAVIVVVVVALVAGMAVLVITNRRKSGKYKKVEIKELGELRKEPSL
# T2: recombinant TROP2 protein (UniProt P09758 27-274, limits assumed)
# T2 construct: also called rProtein
# T2 sequence (looked up): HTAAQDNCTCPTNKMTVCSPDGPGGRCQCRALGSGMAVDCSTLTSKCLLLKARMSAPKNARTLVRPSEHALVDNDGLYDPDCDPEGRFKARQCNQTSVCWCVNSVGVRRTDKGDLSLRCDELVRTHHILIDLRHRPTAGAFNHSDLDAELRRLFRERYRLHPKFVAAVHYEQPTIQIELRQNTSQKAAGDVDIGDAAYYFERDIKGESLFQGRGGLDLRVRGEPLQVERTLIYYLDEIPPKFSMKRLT
# Columns and labels:
# [1] = target: T1, TROP2 on MDA-468 cells over-expressing …; experiment: cell-based or functional assay
# [2] = target: T2, recombinant TROP2 protein; experiment: ELISA titration, antibody with varying concentrations of recombinant TROP2 protein
# Description: Antibodies were tested in an antigen binding assay using ELISA titration experiments. Antibodies were incubated with varying concentrations of recombinant TROP2 protein [rProtein].
Binder,Indirect Cytotoxicity Cell viability % [1] [%],Indirect Cytotoxicity IC50 [1] [pM],rProtein ELISA Affinity [2] [nM]
"TROP2-Ab8 (antibody, V domains shown, Monoclonal antibody from a hybridoma clone) VH: QVQLQQSGPEVVKPGASVKMSCKASGYRFTDYVINWVKQRTGQGLEWIGQIYPGSDSFHYNKNFKGKATLTADKSSNTAYMQLNSLTSEDSAVYFCARFFEGLAYWGQGTLVTVSA VL: DIKMTQSPSSMYAFLGERVTITCKASQGINNYLSWFQLKPGKSPKSLIYRANRLVDGVPSRFSGSGSGQDYSLTISSLDYEDMGIYYCLQYDEFPLTFGGGTKLELK",26,27.1,< 0.1
"TROP2-Ab22 (antibody, V domains shown, Monoclonal antibody from a hybridoma clone) VH: QVQLQQSGPELVKPGASVKMSCKASGYTFTDYVINWVKQRPGQGLEWVGQIYPGSDGTYYNEPFKGEATLTADKSSNTAYMQLSSLTSEDSAVYFCARFFEGFAYWGQGTLVTVSA VL: DIKMTQSPSSMFASLGERVTITCKASQDINWYLSWFQQKPGKSPKTLIYRANRLVDGVPSRFSGSGSGQDYSLTISSLDYEDMGVYYCLQYEEFPLTFGAGTKLELK",34,58.7,0.19
"TROP2-Ab51 (antibody, V domains shown, Monoclonal antibody from a hybridoma clone) VH: QVQLQQSGPEVVKPGASVKMSCRASGYRFTDYVINWVKQRTGQGLEWIGQIYPGSDSFHYNKNFKGKATLTADKSSNTAYMQLNSLTSEDSAVYFCARFFEGFAYWGQGTLVTVSA VL: DIKMTQSPSSMYAFLGERVTITCKASQGINNYLSWFQLKPGKSPKSLIYRANRLVDGVPSRFSGSGSGQDYSLTISSLDYEDMGIYYCLQYDEFPLTFGGGTKLELK",39,56.7,< 0.1
"TROP2-Ab7 (antibody, V domains shown, Monoclonal antibody from a hybridoma clone (V regions amplified with mouse Ig primers)) VH: QVQLQQSGPEVVKPGASVKMSCKASGYRFTDYVINWVKQRSGQGLEWIGQIYPGSDTFHYNKNFKGKATLTADKSSNTAYMQLNSLTSEDSAVYFCARFFEGFAYWGQGTLVTVSA VL: DIKMTQSPSSMYAFLGERVTITCKASQGINNYLSWFHLKPGKSPKSLIYRANRLVDGVPSRFSGSGSGQDYSLTISSLDYEDVGIYYCLQYDEFPLTFGGGTKLELK",34,44,0.1
"TROP2-Ab46 (antibody, V domains shown, Monoclonal antibody from a hybridoma clone) VH: QVQLQQPGAELVRPGASVRLSCKSSGYTFTSYWINWVKQRPGQGLEWIGNIFPSHSYTNYNQKFRDKATLTVDKSSSTAYLQLSSPTSDDSAVYYCTRGSGFDYWGQGTALTVSS VL: DILLTQSPAILSVSPGERVSFSCRASQNIGTSIHWYQQRTNGSPRLLISYASESISGIPSRFSGSGSGTDFTLIINSVESEDIADYYCQHSYSWPFTFGSGTKLEVK",27,67.2,< 0.1
"TROP2-Ab50 (antibody, V domains shown, Monoclonal antibody from a hybridoma clone; also called TROP2 -Ab0) VH: QVQLQQSGAELVRPGTSVKISCKASGYTFTNYWLDWIKQRPGQGLEWIGNIFPGGDYTNYNEEFRGKATLTADTSSRTAFMQLSSLTSEDSAVYFCARSSYDYWGQGTLVTVSA VL: DILLTQSPAILSVSPGERVSFSCRASQNIGTSIHWYQQRTNGSPRLLIKYSSESISGIPSRFSGSGSGTDFSLTINSVESEDIGDYYCQHSYTWPFTFGSGTKLEIK",45,99.2,< 0.1
